Test results reported in article doi:10.1101/2024.11.22.624932.
Where a chain is given by its changes, count along the chain named. Numbers in names are those of the source.

What was measured:
[1] = biological target: synthetic nanobody (sybody) Sb44; assay: SEC
Sb44 V100C [2] = assay: SDS-PAGE under non-reducing and reducing conditions
Sb44 V100C [3] = assay: SEC

B1: synthetic nanobody (sybody) Sb44 (VHH)
VHH: QVQLVESGGGLVQAGGSLRLSCAASGFPVGRASMWWYRQAPGKEREWVAAISSYGWVTAYADSVKGRFTISRDNAKNTVYLQMNSLKPEDTAVYYCEVSVGTGYRGQGTQVTVSA
stoichiometry N [1]: 2

B2: Sb44 V100C (VHH)
VHH: B1 VHH with V100C
stoichiometry N (Sb44 V100C [2]): 2
stoichiometry N (Sb44 V100C [3]): 2
